T1: human CD73 ecto-domain recombinant protein (huCD73) (human, UniProt P21589 27-547)
T1 construct: also called soluble huCD73; soluble recombinant CD73
T1 sequence: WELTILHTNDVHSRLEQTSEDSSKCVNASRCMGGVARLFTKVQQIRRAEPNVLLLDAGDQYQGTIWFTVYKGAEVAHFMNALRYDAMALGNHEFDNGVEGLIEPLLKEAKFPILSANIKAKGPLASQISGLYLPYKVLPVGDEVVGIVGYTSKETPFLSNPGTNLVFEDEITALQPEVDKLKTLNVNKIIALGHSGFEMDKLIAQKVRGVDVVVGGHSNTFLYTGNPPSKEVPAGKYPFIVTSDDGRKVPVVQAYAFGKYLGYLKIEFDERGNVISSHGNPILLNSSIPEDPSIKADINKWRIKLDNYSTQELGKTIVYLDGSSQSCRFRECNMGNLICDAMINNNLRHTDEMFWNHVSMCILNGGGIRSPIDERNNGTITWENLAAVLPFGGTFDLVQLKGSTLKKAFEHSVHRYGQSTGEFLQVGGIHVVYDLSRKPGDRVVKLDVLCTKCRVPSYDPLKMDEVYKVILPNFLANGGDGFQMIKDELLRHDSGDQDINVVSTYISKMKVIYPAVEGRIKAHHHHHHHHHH

T2: cynomolgus CD73 on the cell surface (293T/17-cynoCD73 cells) (cynomolgus (Macaca fascicularis), UniProt P21589 27-547 (human entry))
T2 chain: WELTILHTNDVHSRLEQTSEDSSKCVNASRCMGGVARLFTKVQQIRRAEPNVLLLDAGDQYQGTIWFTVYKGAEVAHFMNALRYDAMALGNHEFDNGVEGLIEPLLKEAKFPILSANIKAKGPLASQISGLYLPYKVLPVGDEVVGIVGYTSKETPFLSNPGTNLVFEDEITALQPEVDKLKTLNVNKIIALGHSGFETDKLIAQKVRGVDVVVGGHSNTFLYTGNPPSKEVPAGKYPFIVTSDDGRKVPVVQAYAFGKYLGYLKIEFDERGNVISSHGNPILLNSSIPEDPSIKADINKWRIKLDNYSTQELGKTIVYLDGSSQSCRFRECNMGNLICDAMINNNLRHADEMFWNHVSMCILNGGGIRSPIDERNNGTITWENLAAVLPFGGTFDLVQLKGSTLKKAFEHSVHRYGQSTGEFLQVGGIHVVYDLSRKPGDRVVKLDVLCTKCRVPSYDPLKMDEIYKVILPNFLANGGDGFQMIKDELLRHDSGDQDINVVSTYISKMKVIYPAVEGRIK


Legend:
[1] = target: T1, human CD73 ecto-domain recombinant …; experiment: indirect ELISA, coated soluble huCD73
Protocol: (§1) The indirect ELISA method was applied to evaluate the binding ability of each positive clone to soluble huCD73 protein. Soluble huCD73 was coated, and gradient diluted samples were incubated, then HPR-labeled secondary antibody was added, finally TMB was added to develop the color, and OD450 was read after termination.
(§2) 1 ug/ml of recombinant CD73 protein was coated on ELISA plates (Coning), incubate overnight at 4° C. The next day, wash 5 times in PBS and blocked with 200 ul/well 2% skimmed milk, a certain dose range of CD73 antibodies were incubated for 1 h at room temperature. Wash 5 times with PBST washing buffer (PBS, 0.05% Tween 20), add HRP-conjugated goat anti-mouse IgG (H+L) (Promega) and incubate at room temperature for 1 h to detect bound anti-CD73 antibodies; wash the plate 5 times again and add TMB (Life Technologies) for color development for 5 to 10 min; finally the reaction was stopped by adding 1N HCl, and the OD value was measured at 450 nm. GraphPad Prism software was used to generate data graphs and statistical affinity data.

[2] = target: T1, human CD73 ecto-domain recombinant …; experiment: cell-based or functional assay
[3] = target: T1, human CD73 ecto-domain recombinant …; experiment: indirect ELISA, coated soluble huCD73, curve fit
Protocol: as §1, §2

[4] = target: T1, human CD73 ecto-domain recombinant …; experiment: indirect ELISA, coated soluble huCD73, HRP-labelled secondary antibody, OD450
Protocol: as §1, §2

[5] = target: T2, cynomolgus CD73 on the cell surface …; experiment: cell-based or functional assay

Binder	EC50 [1] [nM]	Bottom (lower plateau of the fitted curve), blockade of soluble huCD73 enzyme activity (AMP hydrolysis, luciferase/CellTiter-Glo) [2]	IC50, blockade of soluble huCD73 enzyme activity (AMP hydrolysis, luciferase/CellTiter-Glo) [2] [nM]	Top (upper plateau of the fitted curve), blockade of soluble huCD73 enzyme activity (AMP hydrolysis, luciferase/CellTiter-Glo) [2]	Bottom [3] [OD450]	Top [3] [OD450]	EC50 (read off the curve) [4]	IC50, blockade of 5'exonuclease activity on 293T/17-Cyno CD73 cells [5] [nM]
66F2A8D6 (antibody, mouse IgG1, kappa, Hybridoma antibody, mouse IgG1 / mouse kappa full chains) heavy: QVHLQQSGAELAKPGASVNLSCKASGYAFTSYWMHWVKQRPGQGLEWIGYINPSSGLAKYNQKFKDKATLTTDKSSNTAYMQLSSLTYDDSAVYYCGRWLLSAWFAYWGQGTLVTVSAAKTTPPSVYPLAPGSAAQTNSMVTLGCLVKGYFPEPVTVTWNSGSLSSGVHTFPAVLQSDLYTLSSSVTVPSSTWPSETVTCNVAHPASSTKVDKKIVPRDCGCKPCICTVPEVSSVFIFPPKPKDVLTITLTPKVTCVVVDISKDDPEVQFSWFVDDVEVHTAQTQPREEQFNSTFRSVSELPIMHQDWLNGKEFKCRVNSAAFPAPIEKTISKTKGRPKAPQVYTIPPPKEQMAKDKVSLTCMITDFFPEDITVEWQWNGQPAENYKNTQPIMDTDGSYFVYSKLNVQKSNWEAGNTFTCSVLHEGLHNHHTEKSLSHSPGK light: DIKMTQSPSSIYASLGERVTITCKASQGINTYLSWFQQKPGKSPKTLIYRANILVDGVPSRFSGSGSGQDYSLTINSLEYEDMGIYYCLQYDEFPYTFGGGTKLEIKRADAAPTVSIFPPSSEQLTSGGASVVCFLNNFYPKDINVKWKIDGSERQNGVLNSWTDQDSKDSTYSMSSTLTLTKDEYERHNSYTCEATHKTSTSPIVKSFNRNEC	0.153	6.36	1.96	86.1	0.165	3.11	~0.2 nM	0.077
191C3A8B9 (antibody, mouse IgG1, kappa, V domains shown, Hybridoma antibody, mouse IgG1 / mouse kappa full chains) VH: QVQLKESGPGLVAPSQSLSITCTVSGFSLTNYGVHWVRQPPGKGLEWLGVIWAGGSTNYNSALMSRLSISKDNSKSQLFLKMNSLQADDTAMYYCARERGSSWGTMDYWGQGTSVTVSS VL: QIVLTQSPAIMSASPGEKVTMTCSASSRVSYMHWYQQKSGTSPKRWIYDTSQLASGVPARFSGSGSGTSYSLTISSMEAEDAATYYCQQWSSNPYTFGGGTKLEMRR	0.279	5.55	2.41	93.7	0.0498	2.75	~0.04 µg/mL	0.001
S1B5 (antibody, human IgG1, kappa, V domains shown, Phage antibody, chimeric human IgG1 / human kappa full chains) VH: EVQLKESGAELVKPGASVKISCKATGYTFTGYWIEWVKQRPGRGLEWIGEILPGSDITNYNEKFKGKATITADTSSNTAYMQLSSLTTEDSAIYYCARRGYDETGYAMDYWGQGTSVTVSS VL: DIVMTQSPASLAVSLGQRATISCKASQSVDYDGDSYMNWYQQKPGQPPKLLIHAASNLESGIPARFSGSGSGTDFTLNIHPVEEEDAAVYFCQQSKEVPWTFGEGTKLEIKR	0.085	16.2	3.26	99.5	0.007	2.93	~0.08 nM	0.085
94A12G11F2 (antibody, mouse IgG1, kappa, Hybridoma antibody, mouse IgG1 / mouse kappa full chains) heavy: QVQLQQSGAELAKPGASVKLSCKASGYTFTSYWMHWVKQRPGQGLEWIGYINPSSGYTKSNQKFKDKATLTADKSSSTAYMQLSSLTYEDSAVYYCGRWLLSAWFAYWGQGTLVTVSAAKTTPPSVYPLAPGSAAQTNSMVTLGCLVKGYFPEPVTVTWNSGSLSSGVHTFPAVLQSDLYTLSSSVTVPSSTWPSETVTCNVAHPASSTKVDKKIVPRDCGCKPCICTVPEVSSVFIFPPKPKDVLTITLTPKVTCVVVDISKDDPEVQFSWFVDDVEVHTAQTQPREEQFNSTFRSVSELPIMHQDWLNGKEFKCRVNSAAFPAPIEKTISKTKGRPKAPQVYTIPPPKEQMAKDKVSLTCMITDFFPEDITVEWQWNGQPAENYKNTQPIMDTDGSYFVYSKLNVQKSNWEAGNTFTCSVLHEGLHNHHTEKSLSHSPGK light: DIRMTQSPSSMYASLGERVTITCKASQDINTYLSWFQQKPGKSPKSLIYRSNILVDGVPSRFSGSGSGQDYSLTISSLEYEDMGIYYCLQYDDFPYTFGGGTKLEIKRADAAPTVSIFPPSSEQLTSGGASVVCFLNNFYPKDINVKWKIDGSERQNGVLNSWTDQDSKDSTYSMSSTLTLTKDEYERHNSYTCEATHKTSTSPIVKSFNRNEC	0.242	6.21	1.5	87.8	0.0566	2.94	~0.2 nM	0.006
